Test [1] addresses cognate NY-ESO peptide-MHC presented on peptide-pulsed APCs. Nature of the test: cell-based or functional assay.
Test [2] deals with biotinylated cognate NY-ESO peptide-HLA-A*0201 complex. The test is described as follows: SPR (Biacore 3000), soluble TCR over immobilised biotinylated pMHC. (In general: SPR reads the build-up and loss of mass on a sensor chip optically.)

Substance “full-length wild-type 1G4 NY-ESO TCR expressed on transfected T cells” gave an IFN-γ release ELISA, CD4+ T cells; peptide pulsing level needed for a significant response in test [1] above 10 nM. In turn, “soluble disulfide-linked wild-type 1G4 NY-ESO TCR” yielded a Half-live (T½) in test [2] of 2.2 s.

Values taken from patent US20100166722A1.
